Measured values as given in paper doi:10.1101/270363.

Molecular target: full length nPIST (1st - 463rd aa) (mouse) (UniProt Q8BH60)
Assay: SPR

Kd: 13.3 nM | koff: 0.00123 s⁻¹ | kon: 92500 M⁻¹ s⁻¹
Substance: F-actin (filamentous actin) (from UniProt P68135 1-377) (natural protein)
